Results on 3 molecules are retold here after publication PMC3096012.

The stoichiometry N is the number of molecules, sites or subunits per partner or assembly.

What all share (assay): SEC
On the technique in general: In gel filtration, larger molecules generally elute earlier.

Assay [1] deals with GltPh-A V355C-S279C, unlabeled (Pyrococcus Horikoshi), O59010.
Assay [2] has as its target GltPh-A V355C-P129C, unlabeled (Pyrococcus Horikoshi), O59010.
The target of assay [3] is GltPh-A A353C-L130C, unlabeled (Pyrococcus Horikoshi), O59010.

B1: GltPh-A V355C-S279C, unlabeled, O59010 1-425 (natural protein)
chain: MGLYRKYIEYPVLQKILIGLILGAIVGLILGHYGYAHAVHTYVKPFGDLFVRLLKMLVMPIVFASLVVGAASISPARLGRVGVKIVVYYLLTSAFAVTLGIIMARLFNPGAGIHLAVGGQQFQPHQAPPLVHILLDIVPTNPFGALANGQVLPTIFFAIILGIAITYLMNSENEKVRKSAETLLDAINGLAEAMYKIVNGVMQYAPIGVFALIAYVMAEQGVHVVGELAKVTAAVYVGLTLQILLVYFVLLKIYGIDPISFIKHAKDAMLTAFVTRSSCGTLPVTMRVAKEMGISEGIYSFTLPLGATINMDGTALYQGVATFFIANALGSHLTVGQQLTIVLTAVLASIGTAGCPGAGAIMLAMVLHSVGLPLTDPNVAAAYAMILGIDAILDMGRTMVNVTGDLTGTAIVAKTEGTLVPR
modifications: not checked
In assay [1], B1 had a stoichiometry N of 3.

B2: GltPh-A V355C-P129C, unlabeled, O59010 1-425 (natural protein)
chain: MGLYRKYIEYPVLQKILIGLILGAIVGLILGHYGYAHAVHTYVKPFGDLFVRLLKMLVMPIVFASLVVGAASISPARLGRVGVKIVVYYLLTSAFAVTLGIIMARLFNPGAGIHLAVGGQQFQPHQAPCLVHILLDIVPTNPFGALANGQVLPTIFFAIILGIAITYLMNSENEKVRKSAETLLDAINGLAEAMYKIVNGVMQYAPIGVFALIAYVMAEQGVHVVGELAKVTAAVYVGLTLQILLVYFVLLKIYGIDPISFIKHAKDAMLTAFVTRSSSGTLPVTMRVAKEMGISEGIYSFTLPLGATINMDGTALYQGVATFFIANALGSHLTVGQQLTIVLTAVLASIGTAGCPGAGAIMLAMVLHSVGLPLTDPNVAAAYAMILGIDAILDMGRTMVNVTGDLTGTAIVAKTEGTLVPR
modifications: not checked
Molecule B2 returned a stoichiometry N in assay [2] of 3.

B3: GltPh-A A353C-L130C, unlabeled, O59010 1-425 (natural protein)
chain: MGLYRKYIEYPVLQKILIGLILGAIVGLILGHYGYAHAVHTYVKPFGDLFVRLLKMLVMPIVFASLVVGAASISPARLGRVGVKIVVYYLLTSAFAVTLGIIMARLFNPGAGIHLAVGGQQFQPHQAPPCVHILLDIVPTNPFGALANGQVLPTIFFAIILGIAITYLMNSENEKVRKSAETLLDAINGLAEAMYKIVNGVMQYAPIGVFALIAYVMAEQGVHVVGELAKVTAAVYVGLTLQILLVYFVLLKIYGIDPISFIKHAKDAMLTAFVTRSSSGTLPVTMRVAKEMGISEGIYSFTLPLGATINMDGTALYQGVATFFIANALGSHLTVGQQLTIVLTAVLASIGTCGVPGAGAIMLAMVLHSVGLPLTDPNVAAAYAMILGIDAILDMGRTMVNVTGDLTGTAIVAKTEGTLVPR
modifications: not checked
Molecule B3 had a stoichiometry N in assay [3] of 3.
